The results in this text go back to paper PMC2902519, “Impairment of Protein Trafficking upon Overexpression and Mutation of Optineurin” (PLoS ONE, 2010).

In assay [1] the target is T1, L157A optineurin-GFP (OPTN_(L157A)-GFP) (human, UniProt Q96CV9 1-577, L157A).
T1 construct: optineurin, human, with the point mutation Leu157 to Ala made by site-directed mutagenesis; also called L157A mutant; not shown: GFP, C-terminal, kept
Put plainly: co-IP; Tet-on inducible RGC5 cells, doxycycline 1 ug/ml 16 h, expressing OPTNWT-, OPTN_(E50K)- or OPTN_(L157A)-GFP; lysate precipitated with polyclonal anti-GFP; eluates blotted with monoclonal anti-Rab8 or anti-TfR and anti-GFP; band intensity ratio relative to wild type.

Assay [2] addresses T2, E50K optineurin-GFP (OPTN_(E50K)-GFP) (human, UniProt Q96CV9 1-577, E50K).
T2 construct: optineurin, human, with the glaucoma-associated mutation Glu50 to Lys; also called E50K mutant; not shown: GFP, C-terminal, kept
The description is as above.

T1 sequence (Q96CV9 whole entry L157A): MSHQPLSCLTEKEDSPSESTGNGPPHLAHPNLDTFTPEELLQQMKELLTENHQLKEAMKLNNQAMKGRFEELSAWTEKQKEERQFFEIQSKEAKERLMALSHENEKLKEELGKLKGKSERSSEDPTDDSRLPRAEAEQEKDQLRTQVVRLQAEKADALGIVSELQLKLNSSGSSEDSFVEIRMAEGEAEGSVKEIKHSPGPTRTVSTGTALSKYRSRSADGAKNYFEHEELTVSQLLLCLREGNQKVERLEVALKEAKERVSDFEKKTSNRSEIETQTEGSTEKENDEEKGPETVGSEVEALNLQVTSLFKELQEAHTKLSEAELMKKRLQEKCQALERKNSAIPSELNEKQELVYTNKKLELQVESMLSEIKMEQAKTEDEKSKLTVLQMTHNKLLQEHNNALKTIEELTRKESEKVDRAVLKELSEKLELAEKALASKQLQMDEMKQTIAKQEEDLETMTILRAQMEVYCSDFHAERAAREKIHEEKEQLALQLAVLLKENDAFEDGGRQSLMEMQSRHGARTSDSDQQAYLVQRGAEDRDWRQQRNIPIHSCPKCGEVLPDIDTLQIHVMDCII
T2 sequence (Q96CV9 whole entry E50K): as the sequence (Q96CV9 whole entry L157A) above, with E50K, A157L counted along it

Regarding “endogenous Rab8 of RGC5 cells (from UniProt P35280 1-207) (natural protein)”, the fold reduction of Rab8 binding against OPTNWT-GFP (fold lower than wild type) in assay [1] was 5. Further, the fold increase of co-precipitated Rab8 against OPTNWT-GFP (fold higher than wild type) in assay [2] was found to be 5.

B1: endogenous transferrin receptor (TfR) of RGC5 cells (receptor, rat (endogenous in RGC5), UniProt Q99376 1-761, looked up)
chain: MMDQARSAFSNLFGGEPLSYTRFSLARQVDGDNSHVEMKLAADEEENADSNMKASVRKPKRFNGRLCFATIAVVIFFLIGFMIGYLGYCKRVEQKEECVRLAEAEEADKSENDETEYVPKSSRLFWADLKTLLSEKLNSIEFTDIIKQLSQNTYTPREAGSQKDENLAYYIENLFHDFKFSKVWRDEHYVKIQVKNSVSQNLVTINSGSNIDPVEAPEGYVAFSKAGEVTGKLVHANFGTKKDFEELNYSVNGSLVIVRAGKITFAEKVANAQSFNAIGVLIYMDRNTFPVVEADLQFFGHAHLGTGDPYTPGFPSFNHTQFPPSQSSGLPSIPVQTISRAAAEKLFKNMEGNCPPSWNIDSSCKLELSQNQNVKLTVNNVLKETRILNIFGVIKGYEEPDRYIVVGAQRDAWGPGVAKSSVGTGLLLKLAQVFSDMISKDGFRPSRSIIFASWTAGDYGAVGATEWLEGYLSSLHLKAFTYINLDKVVLGTSNFKVSASPLLYTLMGKIMQDVKHPIDGKYLYRDSNWISKIEELSLDNAAFPFLAYSGIPAVSFCFCEDEDYPYLGTKLDTYEILIQKVPQLNQMVRTAAEVAGQFIIKLTHDIELTLDYEMYNSKLLSFMKDLNQFKADIKDMGLSLQWLYSARGDYFRATSRLTTDFHNAEKTNRFVMREINDRIMKVEYHFLSPYVSPRESPFRHIFWGSGSHTLSALVENLRLRQKNITAFNETLFRNQLALATWTIQGVANALSGDIWNIDNEF
notes: transferrin receptor, endogenous in rat RGC5 cells, detected as a 95-kDa band by mouse monoclonal anti-human TfR (Zymed); The abstract calls RGC5 a rat cell line; also called 95-kDa TfR; source: endogenous, RGC5 lysate
On to B1, for which the “fold reduction of co-precipitated TfR against wild type optineurin” value in assay [1] (partners not purified) is ~5 fold lower than wild type. The “fold increase of co-precipitated TfR against wild type optineurin” value in assay [2] (partners not purified) was ~10 fold higher than wild type.
